Experimental data reported in patent US9605038B2, “Fusion peptide comprising dhFas-1 domain and MMP substrate and use thereof for preventing and treating rheumatoid arthritis” (Kyungpook National University Industry-Academic Cooperation …, priority 2010, dated 2017).

Tests used:
cathepsin D = cathepsin D (Homo sapiens, UniProt P07339); assay: Enzymatic digestion test, cathepsin D; type: biochemical; details: 3 ug peptide, cathepsin D 5, 10, 50 ng, 37° C. 4 hours
Procedure: (§1) 3 ug of synthesized mdhFas-1-MMPsubstrate structure modified protein, together with MMP1 (5 ng, 10 ng and 50 ng), MMP2 (100 ng, 200 ng and 800 ng), MMP3 (10 ng, 50 ng and 100 ng), cathepsin D (5 ng, 10 ng and 50 ng), cathepsin L (100 ng, 200 ng and 800 ng), and cathepsin K (10 ng, 50 ng and 100 ng), was mixed with enzyme buffer (150 mM NaCl, 5 mM. CaCl2, 20 mM Tris-HCl pH7.5), and reacted at 37° C. for 4 hours. The resultant product was subjected to electrophoresis through 15% polyacrylamide gel, transferred to a Nitrocellulose Membrane (Schleicher & Schuell), blocked at room temperature for 1 hour with TBST solution containing 3% BSA (20 mmole/L Tris-HCl, 137 mmole//l NaCl, 0.1% Tween-20), washed TBST solution three times (each for 10 minutes), and reacted with primary antibody (anti-Histidine or anti-Bigh3) for 1 hour. The resultant product was washed with TBST solution three times (each for 10 minutes), reacted with a secondary antibody conjugated to horseradish peroxidase (HRP) for 1 hour, washed TBST solution three times (each for 10 minutes), and visualized by ECL (Amersham Biosciences, UK) so as to detect the change in the amount of mdhFas-1-MMPsubstrate-RGD structural peptide.

cathepsin K = molecular target: T1, cathepsin K (Homo sapiens, UniProt P43235); assay: Enzymatic digestion test, cathepsin K; type: biochemical; details: 3 ug peptide, cathepsin K 10, 50, 100 ng, 37° C. 4 hours
T1 sequence (P43235 115-329): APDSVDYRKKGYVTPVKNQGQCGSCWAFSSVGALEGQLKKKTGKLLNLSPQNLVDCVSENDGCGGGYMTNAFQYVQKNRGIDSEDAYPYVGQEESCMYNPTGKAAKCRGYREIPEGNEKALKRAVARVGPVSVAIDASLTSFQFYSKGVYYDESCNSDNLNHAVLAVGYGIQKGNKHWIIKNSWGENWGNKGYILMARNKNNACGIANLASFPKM
Procedure: as §1

ICAM-1 and RANKL = assay: Immunoblot of ICAM-1 and RANKL in CIA mouse model; type: in vivo
[1] = molecular target: T2, MMP-1 secreted from a human Synovial membrane cell (Homo sapiens, UniProt P03956); assay: Culture analysis of enzymatic digestion in IL-1β stimulated human FLS; type: cell-based; details: 1 uM peptide, 3 and 6 hours, IL-1β 0.1 ng/ml
T2 construct: MFK24 peptide cleaved by MMP-1 secreted from a human Synovial membrane cell; endogenous in cells; host or cells: human fibroblast-like synoviocytes (human synovial membrane cell line) stimulated with 0.1 ng/ml IL-1β
T2 sequence (P03956 100-469): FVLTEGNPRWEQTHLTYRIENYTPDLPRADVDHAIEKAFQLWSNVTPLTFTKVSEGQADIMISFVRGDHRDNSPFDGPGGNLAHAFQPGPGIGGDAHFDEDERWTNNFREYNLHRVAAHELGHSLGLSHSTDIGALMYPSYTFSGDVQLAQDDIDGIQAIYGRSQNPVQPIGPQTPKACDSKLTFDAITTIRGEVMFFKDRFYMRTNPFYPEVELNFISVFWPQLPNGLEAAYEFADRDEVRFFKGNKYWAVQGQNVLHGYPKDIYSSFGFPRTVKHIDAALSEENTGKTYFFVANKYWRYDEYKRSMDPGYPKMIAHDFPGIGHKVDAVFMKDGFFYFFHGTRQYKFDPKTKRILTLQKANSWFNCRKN
Procedure: In order to determine if MFK24 is well adhered to cells and in actuality cleaved by MMP-1, human FLS (fibroblast-like synovicyte) was treated with IL-1β so as to amplify the expression of MMP-1. Then, MFK24 was added in a culture medium and cultured.
In a culture medium of DMEM+10% FBS (fetal bovine serum)+2% penicillin, streptomycin, a human Synovial membrane cell line was cultured for 2 days, added with 0.1 ng/ml IL-1β, and stimulated for 24 hours. The cell line was treated with mdhFas-1-MMPsubstrate-RGD structural peptide (1 uM), and stimulated for 3 hours and 6 hours. Then, by using an anti-βig-h3 antibody recognizing mdhfas-1, and an anti-histidine antibody recognizing C-terminal histidine-tag, the amount of peptide was determined.

[2] = system: TNF-a, RANKL, IL-1β, CCL-2, MMP-1, MMP-3, IL-6, VCAM-1; assay: Semiquantitative reverse transcription PCR of inflammatory mediators in CIA mouse foot tissue; type: in vivo; details: CIA mouse articulation tissue, FIG. 21
Procedure: The distribution of inflammation in the foot tissue may be somewhat differently observed according to the regions, and its quantitative research is difficult. Thus, in the hind leg of a mouse CIA model treated with MFK24, the change in inflammatory mediators according to the onset of arthritis was measured by a semiquantitative reverse transcription PCR method using a Taqman probe, as described below.
From a mouse CIA model, a foot tissue was separated, and its skin was removed. The remaining tissue was grinded by a tissue homogenizer, and an extraction reagent (Easy-spim™, Intron) was used to extract all RNAs. They were quantified, and for 7 μg of RNA, a reverse transcriptase reaction was carried out by using AMV reverse transcriptase (Roche, 0.5 ul), oligo dT (Roche, 1 ul), and 10 mM dNTP (Takara, 2 ul) RNase inhibitor (Roche, 0.1 ul). For TNF-a, RANKL, IL-1β, CCL-2, MMP-1, MMP-3, IL-6, VCAM-1 and 18S RNA of a mouse, semiquantitative PCR was performed by using primers (Bioneer, Daejeon) and a Taqman probe (Roche, Germany) in LC480 (Roche, Germany), so as to determine the number of transcripts. Quantitative analysis of the transcripts was performed through comparison with 18S RNA transcripts. The primer pairs for the semiquantitative PCR are noted in [table8].

Chain of cathepsin D (P07339 65-412, species assumed): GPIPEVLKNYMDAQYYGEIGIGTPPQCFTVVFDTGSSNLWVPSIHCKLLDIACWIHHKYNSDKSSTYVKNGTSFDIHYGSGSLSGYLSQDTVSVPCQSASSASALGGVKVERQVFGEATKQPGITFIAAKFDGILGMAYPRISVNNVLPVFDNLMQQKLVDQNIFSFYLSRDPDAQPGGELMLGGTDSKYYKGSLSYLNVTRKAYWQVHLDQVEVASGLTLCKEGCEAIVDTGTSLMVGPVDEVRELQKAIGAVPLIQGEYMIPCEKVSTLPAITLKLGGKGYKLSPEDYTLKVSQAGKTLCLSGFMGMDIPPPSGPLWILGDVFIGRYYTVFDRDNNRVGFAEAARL

B1: MFK23: fusion peptide having sequential links of mdhFas-1, MMP2 substrate GPLGVRG (SEQ ID NO: 5), and QERGDSLA (SEQ ID NO: 10) (protein)
chain: QAMPPEELNKLLANAKELTNILKYHIGDEILVSGGIGALVRLKSLQGDKLEVSSKNNVVSVNKEPVAETDIMEFGPLGVRGVDGQERGDSLAGLE
modifications: MFK23
For B1, the “cleavage through treatment with cathepsin D” value (cathepsin D) was “not cleaved” and the “cleavage through treatment with cathepsin K” value (cathepsin K) was “not cleaved”.

B2: MFK24: fusion peptide having sequential links of mdhFas-1, MMP1 substrate GPQGIAG (SEQ ID NO: 6), and QERGDSLA (SEQ ID NO: 10) (protein)
chain: QAMPPEELNKLLANAKELTNILKYHIGDEILVSGGIGALVRLKSLQGDKLEVSSKNNVVSVNKEPVAETDIMEFGPQGIAGVDGQERGDSLAGLE
modifications: MFK24
For B2, the “efficacy on ICAM-1 and RANKL expression at low dose” value (ICAM-1 and RANKL; 0.1 mg/kg) was “the high efficacy was maintained”, the “expression of ICAM-1 and RANKL in the inflammatory region” value (ICAM-1 and RANKL; according to doses, FIG. 22) was “reduced” and the “cleavage through treatment with cathepsin D” value (cathepsin D) was “not cleaved”. For the same molecule, the “cleavage through treatment with cathepsin K” value (cathepsin K) was “not cleaved”, the “cleavage in FLS culture (anti-histidine vs anti-βig-h3)” value [1] was “cleaved by MMP-1 secreted from a Synovial membrane cell” and the “number of transcripts of inflammatory mediators compared to arthritis control group” value [2] was “significantly reduced”.
